# Test results reported in patent US10351623B2, “Antagonists of IL-17 isoforms and their uses” (Orega Biotech, priority 2012, dated 2019).
# B1: IL-17F: recombinant human IL-17F, interleukin 17 isoform (protein, UniProt Q96PD4 31-163, looked up)
# Interleukin-17F: RKIPKVGHTFFQKPESCPPVPGGSMKLDIGIINENQRVSMSRNIESRSTSPWNYTVTWDPNRYPSEVVQAQCRNLGCINAQGKEDISMNSVPIQQETLVVRRKHQGCSVSFQLEKVLVTVGCTCVTPVIHHVQ
# B2: IL-17D: recombinant human IL-17D, interleukin 17 isoform, receptor unknown (protein, UniProt Q8TAD2 16-202, looked up)
# Interleukin-17D: AGAPRAGRRPARPRGCADRPEELLEQLYGRLAAGVLSAFHHTLQLGPREQARNASCPAGGRPADRRFRPPTNLRSVSPWAYRISYDPARYPRYLPEAYCLCRGCLTGLFGEEDVRFRSAPVYMPTVVLRRTPACAGGRSVYTEAYVTIPVGCTCVPEPEKDADSINSSIDKQGAKLLLGPNDAPAGP
# B3: IL-17C: recombinant human IL-17C, interleukin 17 isoform that binds IL-17RE (protein)
# chain: HHDPSLRGHPHSHGTPHCYSAEELPLGQAPPHLLARGAKWGQALPVALVSSLEAASHRGRHERPSATTQCPVLRPEEVLEADTHQRSISPWRYRVDTDEDRYPQKLAFAECLCRGCIDARTGRETAALNSVRLLQSLLVLRRRPCSRDGSGLPTPGAFAFHTEFIHVPVGCTCVLPRSV
# B4: IL-17E: recombinant human IL-17E (=IL-25), interleukin 17 isoform (protein, UniProt Q9H293 33-177, looked up)
# Interleukin-25: YSHWPSCCPSKGQDTSEELLRWSTVPVPPLEPARPNRHPESCRASEDGPLNSRAISPWRYELDRDLNRLPQDLYHARCLCPHCVSLQTGSHMDPRGNSELLYHNQTVFYRRPCHGEKGTHKGYCLERRLYRVSLACVCVRPRVMG
# B5: IL-17B: recombinant human IL-17B, interleukin 17 isoform that binds IL-17RB (protein)
# chain: QPRSPKSKRKGQGRPGPLAPGPHQVPLDLVSRMKPYARMEEYERNIEEMVAQLRNSSELAQRKCEVNLQLWMSNKRSLSPWGYSINHDPSRIPVDLPEARCLCLGCVNPFTMQEDRSMVSVPVFSQVPVRRRLCPPPPRTGPCRQRAVMETIAVGCTCIF
# Legend:
# [1] = tested on: normal human dermal fibroblasts (NHDF); assay: IL-6 ELISA; type: cell-based; settings: 30 ng/ml recombinant cytokine, 24 h culture, ELISA of supernatant
# Experimental: FIG. 12: IL-17B, IL-17C, IL-17D, IL-17E and IL-17F increase the production of pro-inflammatory IL-6 by normal human dermal fibroblasts (NHDF). NHDF were cultured for 24 h in complete adequate complete medium alone (medium) or in the presence of 30 ng/ml of recombinant human IL-17B, IL-17C, IL-17D, IL-17E or IL-17F as indicated. All isoforms increased the production of pro-inflammatory IL-6 by NHDF.
# Normal human dermal fibroblasts (NHDF) were cultures in complete medium alone or supplemented with 30 ng/ml L of recombinant IL-17B, IL17C or IL17D as indicated. After […] of culture, supernatant are collected. IL-6 ELISA is performed with human IL-6 development kit (Peprotech) following manufacturer's instructions.
# MCF7 breast cancer cells [2] = assay: Cell proliferation assay ([3H]-TdR); type: cell-based, human; settings: [3H]-TdR incorporation at 72 h, increasing doses of recombinant cytokine (0 to 100 ng/ml)
# Experimental: (§1) FIGS. 7A-7D: IL-17B increases the proliferation of breast cancer cells. T47D (A), MCF7 (B), MDA-MB436 (C) and MDA-MB468 (D) cells were cultured in adequate complete medium supplemented with increasing doses of recombinant human IL-17B as indicated. Cell proliferation was assessed at 72 h using tritiated thymidine ([3H]-TdR) incorporation protocol.
# (§2) FIGS. 10A-10F: IL-17C and IL-17D increase the proliferation of breast and ovarian cancer cells. OAW42 (ovarian, A), MCF7 (breast, B) and T47D (breast, C) cells were cultured in adequate complete medium supplemented with increasing doses of recombinant human IL-17C as indicated. Cell proliferation was assessed at 72 h using tritiated thymidine ([3H]-TdR) incorporation protocol. OAW42 (D), MCF7 (E) and T47D (F) cells were cultured in adequate complete medium supplemented with increasing doses of recombinant human IL-17D as indicated. Cell proliferation was assessed at 72 h using tritiated thymidine ([3H]-TdR) incorporation protocol.
# (§3) HCT116, HT29, and SKOV3 cell lines were cultured in McCoy5a medium (Life technologies) supplemented with 10% FCS, 2% glutamine and 1% antibiotics (Life technologies). MCF7, T47D, MDA-MB231 and BT20 cell lines were cultured in RPMI 1640 medium supplemented as described above. SKMEL5, LOVO, OAW42, MDA-MB435S, MDA-MB436, MDA-MB468 cell lines and normal human dermal fibroblasts (NHDF) were grown in DMEM/F12 medium (Life Technologies) supplemented as described above. MCF10A cell line was maintained in DMEM/F12 medium (Life Technologies) supplemented as described above and with 10 μg/ml insulin, 0.5 μg/ml hydrocortisone, 20 ng/ml EGF and 100 ng/ml cholera toxin. MDA-MB157 cell line was cultured in DMEM medium (Life technologies) supplemented with 10% FCS, 2% glutamine and 1% antibiotics. All cells were kept at 37° C. in 5% CO2 atmosphere incubator.
# (§4) 400 cells are seeded per well in 96 well plate (Corning) and kept overnight in adequate complete medium. Medium is then removed and replaced with adequate complete medium supplemented with 0 to 100 ng/ml of cytokines as indicated. Each condition is performed in triplicate. After 72 h of culture, cells were pulsed for 16 h with tritiated thymidine ([3H]-TdR) (0.5 μCi) and harvested. [3H]-TdR uptake was measured using PerkinElmer microβ2 2450 microplate counter.
# [3] = tested on: OAW42 ovarian cancer cells; assay: Cell proliferation assay ([3H]-TdR); type: cell-based, human; settings: [3H]-TdR incorporation at 72 h, increasing doses of recombinant cytokine (0 to 100 ng/ml)
# Experimental: as §2
# HCT116, HT29, and SKOV3 cell lines were cultured in McCoy5a medium (Life technologies) supplemented with 10% FCS, 2% glutamine and 1% antibiotics (Life technologies). MCF7, T47D, MDA-MB231 and BT20 cell lines were cultured in RPMI 1640 medium supplemented as described above. SKMEL5, LOVO, OAW42, MDA-MB435S, MDA-MB436, MDA-MB468 cell lines and normal human dermal fibroblasts (NHDF) were grown in DMEM/F12 medium (Life Technologies) supplemented as described above. […]
# (§5) 400 cells are seeded per well in 96 well plate (Corning) and kept overnight in adequate complete medium. […] [3H]-TdR uptake was measured using PerkinElmer microβ2 2450 microplate counter.
# [4] = tested on: MDA-MB231 breast cancer cells; assay: Matrigel invasion assay; type: cell-based, human; settings: cultured 2 days with 100 ng/ml, Matrigel Invasion Chambers, 22 hours
# Experimental: FIGS. 11A-11B: IL-17C and IL-17D increase invasion of MDA-MB231 breast cancer cells. MDA-MB231 were cultured for 2 days in complete adequate medium alone (medium) or supplemented with 100 ng/ml of recombinant human IL-17B, IL-17C or IL-17D as indicated. Cell invasiveness was then evaluated in Matrigel Invasion Chambers (A, representative photomicrographs, B, quantification).
# (§6) Cells were cultured in adequate complete medium supplemented with 100 ng/ml of recombinant cytokines for 2 days (MDA-MB231) or 14 days (OAW42). Matrigel Invasion Chambers (BD BioCoat™ BD Matrigel™ Invasion Chamber, 24-well Cell culture inserts) were then used to study the invasiveness of cancer cells. 2.10^4 cells are then added to the upper compartment of the chambers in 1% FCS adequate medium alone or supplemented with 100 ng/ml of recombinant cytokines as indicated. Medium supplemented with 10% FCS is added to the lower wells of the chambers. Plates are incubated for 22 hours at 37° C. Transwell filters are then fixed and stained in Giemsa solution following which non-invading cells are removed from the upper surface of the transwell membrane using a cotton swab. Images of cells from three representative fields are captured digitally and the number of cells present on the transwell is counted.
# T47D breast cancer cells = assay: Cell proliferation assay ([3H]-TdR); type: cell-based, human; settings: [3H]-TdR incorporation at 72 h, increasing doses of recombinant cytokine (0 to 100 ng/ml)
# Experimental: as §1, §2, §3, §4
# [5] = tested on: MDA-MB436 breast cancer cells; assay: Cell proliferation assay ([3H]-TdR); type: cell-based, human; settings: [3H]-TdR incorporation at 72 h, increasing doses of recombinant cytokine (0 to 100 ng/ml)
# Experimental: as §1, §3, §5
# [6] = tested on: MDA-MB468 breast cancer cells; assay: Cell proliferation assay ([3H]-TdR); type: cell-based, human; settings: [3H]-TdR incorporation at 72 h, increasing doses of recombinant cytokine (0 to 100 ng/ml)
# Experimental: as §1, §3, §5
# MDA-MB231 cells = assay: Cell proliferation assay ([3H]-TdR); type: cell-based, human; settings: MDA-MB231 cells that do not express IL-17RB; data not shown
# Experimental: as §3, §4
# MCF7 breast cancer cells [7] = assay: Transwell migration assay; type: cell-based, human; settings: 100 ng/ml, 22 hours
# Experimental: (§7) FIGS. 8A-8C: IL-17B increases migration and invasion of breast and ovarian cancer cells. OAW42 (ovarian, A) and MCF7 (breast, B) cells were cultured in complete adequate complete medium alone (Ctl) or supplemented with 100 ng/ml of recombinant human IL-17B (IL-17B) as indicated. Cell migration was evaluated in transwell migration assay. (C) OAW42 cells were cultured for 14 days in adequate complete medium alone (Ctl) or supplemented with 100 ng/ml of recombinant human IL-17B (IL-17B) as indicated. Cell invasiveness was then evaluated in Matrigel Invasion Chambers.
# (§8) Migration Assay 20,000 cells were seeded on the upper chamber of trans well chambers in 1% FCS adequate medium alone (medium) or supplemented with recombinant human IL-17B (100 ng/ml) for 22 hours at 37° C. as indicated. The cells on the transwell were stained with 0.5% crystal violet prior imaging and enumeration. The number of cells migrated onto the transwell were counted (magnification ×4). The graph presents data after quantification in % of cell migration compared to non-treated cells. Results are the mean+/−SEM of two independent experiments, each performed in triplicate.
# [8] = tested on: OAW42 ovarian cancer cells; assay: Transwell migration assay; type: cell-based, human; settings: 100 ng/ml, 22 hours
# Experimental: as §7, §8
# [9] = tested on: OAW42 ovarian cancer cells; assay: Matrigel invasion assay; type: cell-based, human; settings: cultured 14 days with 100 ng/ml, Matrigel Invasion Chambers, 22 hours
# Experimental: as §7
# as §6, with “Transwell filters are then fixed and stained in Giemsa solution following which non-invading cells are removed from the upper surface of the transwell membrane using a cotton swab.” left out
# [10] = tested on: breast cancer cell lines that express IL-17RB; assay: Cytotoxicity assay, docetaxel-induced cell death; type: cell-based; settings: MCF7, T47D, MDA-MB436, BT20, MDA-MB468; cytokine 1 or 10 ng/ml; docetaxel 5, 10, 20 or 40 μg/ml for 7 h
# Experimental: (§9) FIGS. 9A-9F: IL-17B inhibits docetaxel and doxorubicin-induced cell death. MCF7 (A), T47D (B), MDA-MB436 (C), BT20 (D) and MDA-MB468 (E) breast cells were cultured for 48 h in adequate complete medium alone (medium) or treated with recombinant human IL-17B at 1 or 10 ng/ml as indicated. Cells were then culture in Fetal Calf Serum (FCS) free medium supplemented with corresponding concentration of cytokine for 24 h and then further supplemented with docetaxel at 5, 10, 20 or 40 μg/ml as indicated for 7 h. The percentage of cell death (=cytotoxicity) was determined using the Cytotoxicity Detection Kit (Roche). (F) MCF7 cells were cultured for 48 h in adequate complete medium alone (medium) or treated with recombinant human IL-17B at 1 or 10 ng/ml as indicated. […] The percentage of cell death (=cytotoxicity) was determined using the Cytotoxicity Detection Kit (Roche). […]
# (§10) The percentage of cell death (=cytotoxicity) was determined after 7 h of culture in the presence of docetaxel or doxorubicin using the Cytotoxicity Detection Kit (Roche) according to the manufacturer's instructions. […] Optical density was then read at 490 nm. The percentage of cytotoxicity is calculated as followed: %=100×(exp value−control medium value)/(Triton X100 treated cells value−control medium value)
# MCF7 breast cancer cells [11] = assay: Cytotoxicity assay, doxorubicin-induced cell death; type: cell-based; settings: cytokine 1 or 10 ng/ml, doxorubicin 20 or 30 μM for 7 h
# Experimental: as §9, §10
Molecule,production of pro-inflammatory IL-6 [1],cell proliferation (MCF7 breast cancer cells [2]),cell proliferation [3],cell invasiveness [4],cell proliferation (T47D breast cancer cells),cell proliferation [5],cell proliferation [6],cell proliferation (MDA-MB231 cells),cell migration (MCF7 breast cancer cells [7]),cell migration [8],cell invasiveness [9],docetaxel-induced cell death (cytotoxicity) [10],doxorubicin-induced cell death (cytotoxicity) (MCF7 breast cancer cells [11])
B1,increase,,,,,,,,,,,,
B2,increase,increased,increased,increased,,,,,,,,,
B3,increase,increased,increased,increased,increased,,,,,,,,
B4,increase,,,,,,,,,,,,
B5,increase,increased,,did not increase,increased,increased,increased,did not stimulate,increased,increased,increased,decreased,protected
